Publication PMC11470950

T1: RVFV nucleoprotein (N) (Rift Valley fever virus, UniProt D3K5I7 1-245)
T1 sequence: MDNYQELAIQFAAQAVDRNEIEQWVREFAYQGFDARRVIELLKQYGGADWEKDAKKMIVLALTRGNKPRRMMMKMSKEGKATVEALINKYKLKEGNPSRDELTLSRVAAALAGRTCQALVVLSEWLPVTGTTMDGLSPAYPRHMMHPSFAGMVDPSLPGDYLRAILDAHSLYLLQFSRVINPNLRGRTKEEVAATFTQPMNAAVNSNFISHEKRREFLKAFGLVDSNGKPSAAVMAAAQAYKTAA


What follows are binders tested against T1, RVFV nucleoprotein (N) (assay: fluorescence bead binding assay).

Binder	Kd
CTCCAGCGTAAACTACTGAAGACTGTGCCGGAAAGATC (ssDNA) [RV-2 (RVF 2)]	15.4 nM
AGATGTCCTGCGTCGAGACACTTCTGCATTACTACGTTGG (ssDNA) [RV-3 (RVF 3)]	18.6 nM
CAGAAAAAGTGCCGACCGAACGATGTGTAAGCGCTATGAGA (ssDNA) [RV-5]	41 nM
